Article PMC6009577

Biological target: G4-P351A fragment of DGCR8 (proline at 351 to alanine) (human) (UniProt Q8WYQ5)
Test: SEC

G4-P351A fragment of DGCR8 (proline at 351 to alanine) (from UniProt Q8WYQ5 1-773) (domain or fragment)
stoichiometry N: 2
